Assay results from PMC6919569.

Assays:
[1] = biological target: T1, NF-kB p65 (RelA), recombinant (Homo sapiens, UniProt Q04206 1-551); test: EMSA, supershift
[2] = biological target: T1, NF-kB p65 (RelA), recombinant; test: competition EMSA

T1 sequence (Q04206 whole entry): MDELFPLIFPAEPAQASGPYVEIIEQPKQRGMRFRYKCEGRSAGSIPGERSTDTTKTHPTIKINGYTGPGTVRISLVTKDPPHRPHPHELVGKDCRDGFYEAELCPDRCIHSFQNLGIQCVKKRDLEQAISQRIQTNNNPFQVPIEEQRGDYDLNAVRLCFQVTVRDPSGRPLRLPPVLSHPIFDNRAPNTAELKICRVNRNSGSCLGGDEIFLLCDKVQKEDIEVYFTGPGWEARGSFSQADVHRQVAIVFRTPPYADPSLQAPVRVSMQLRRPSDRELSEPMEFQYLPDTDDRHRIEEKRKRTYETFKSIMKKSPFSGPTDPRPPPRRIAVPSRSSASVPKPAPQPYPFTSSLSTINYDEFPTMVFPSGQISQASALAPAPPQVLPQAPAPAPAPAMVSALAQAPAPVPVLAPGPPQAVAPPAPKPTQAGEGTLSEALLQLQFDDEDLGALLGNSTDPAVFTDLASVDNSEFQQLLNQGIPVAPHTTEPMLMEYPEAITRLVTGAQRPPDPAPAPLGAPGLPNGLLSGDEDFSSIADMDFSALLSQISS

Binder | binding result [1] | binding result [2]
PLCB2 -1652/-1628 WT NF-kB probe (dsDNA) DNA 1: CTGTGCTGGGAATTCCCTTAGCTCC DNA 2: GGAGCTAAGGGAATTCCCAGCACAG | binds | –
Mutant 2 (… to CCCTTAAGGG) (dsDNA) DNA 1: CTGTGCTCCCTTAAGGGTTAGCTCC DNA 2: GGAGCTAACCCTTAAGGGAGCACAG | – | no binding
Mutant 1 (NF-kB site deleted) (dsDNA) DNA 1: CTGTGCTTTAGCTCC DNA 2: GGAGCTAAAGCACAG | – | no binding
